Measured values: publication PMC9887876

Columns and labels:
[1] = target: GP075m, variant of the putative baseplate wedge protein GP075 with the substitution T239A (phage K8-T239A), His-tagged (Pseudomonas phage K8-T239A (derivative of phage K8)); experiment: SEC-MALS; 100 ul of protein solution (0.15-4.05 mg/ml) on a WTC-015S5 column; 100 mM NaCl, 50 mM Tris-HCl, 1 mM EDTA, 0.02% NaN3, pH 7.4; 0.4 ml/min; BSA as control; self-polymerization degree
[2] = target: putative baseplate wedge protein GP075 of Pseudomonas phage K8, His-tagged (Pseudomonas phage K8); experiment: as above

| Substance | molar mass [1] | molar mass [2] |
| --- | --- | --- |
| GP075m, variant of the putative baseplate wedge protein GP075 with the substitution T239A (phage K8-T239A), His-tagged (natural protein) | 185 |  |
| putative baseplate wedge protein GP075 of Pseudomonas phage K8, His-tagged (natural protein) |  | 81.2 |
